Legend:
[1] = cited from earlier work
[2] = PK profile of GLP-2-2G peptide, GLP-2-hyFc5 and GLP-2-hyFc9, subcutaneous, rats; set-up: species or system Sprague Dawley rats; conditions: in vivo, sc, rat, serum, GLP-2 ELISA kit
Method: In order to confirm the pharmacokinetic profiles (PK profiles) of the GLP-2-hyFc5 and GLP-2-hyFc9 fusion polypeptides prepared above, experiments were performed as follows.
Male Sprague Dawley rats (3 rats/group) were administered subcutaneously with respective proteins (GLP-2-2G peptide, GLP-2-hyFc5, and GLP-2-hyFc9). Blood samples were collected before the administration and after the administration at 0.08-, 0.16-, 0.5-, 2-, 4-, 8-, 24-, 48-, 96-, 120-, and 168 hours, respectively. The blood samples were stored at room temperature for 30 minutes for agglutination. The samples were centrifuged at 3000 rpm for 10 minutes to obtain serum from each sample and then stored in a deep freezer. The samples were quantitated by dilution to be analyzed in a position on a straight line of standard curve using GLP-2 kit (Millipore, Cat. No. EZGLP2-37K).

| half-life [2] | Molecule | in-vivo half-life [1] |
| --- | --- | --- |
| – | glucagon like peptide-2 [GLP-2] | about 7 minutes |
| 1.2 h | CC[C@H](C)[C@H](NC(=O)[C@H](Cc1ccccc1)NC(=O)[C@H](CC(=O)O)NC(=O)[C@H](CCCNC(=N)N)NC(=O)[C@H](C)NC(=O)[C@H](C)NC(=O)[C@H](CC(C)C)NC(=O)[C@H](CC(N)=O)NC(=O)[C@H](CC(=O)O)NC(=O)[C@H](CC(C)C)NC(=O)[C@@H](NC(=O)[C@@H](NC(=O)[C@H](CC(N)=O)NC(=O)[C@H](CCSC)NC(=O)[C@H](CCC(=O)O)NC(=O)[C@H](CC(=O)O)NC(=O)[C@H](CO)NC(=O)[C@H](Cc1ccccc1)NC(=O)[C@H](CO)NC(=O)CNC(=O)[C@H](CC(=O)O)NC(=O)CNC(=O)[C@@H](N)Cc1c[nH]cn1)[C@@H](C)O)[C@@H](C)CC)C(=O)N[C@@H](CC(N)=O)C(=O)N[C@@H](Cc1c[nH]c2ccccc12)C(=O)N[C@@H](CC(C)C)C(=O)N[C@H](C(=O)N[C@@H](CCC(N)=O)C(=O)N[C@H](C(=O)N[C@@H](CCCCN)C(=O)N[C@H](C(=O)N[C@H](C(=O)N[C@@H](CC(=O)O)C(=O)O)[C@@H](C)O)[C@@H](C)CC)[C@@H](C)O)[C@@H](C)CC [GLP-2-2G, reference compound] | – |
